Results from the Human Domainome abundance scans (Beltran et al. 2025).
± gives the uncertainty stated by the source.

B1: Homeobox protein SIX3, residues 212 to 262; numbered along this chain, O95343 (parent)
chain: CFKERTRSLLREWYLQDPYPNPSKKRELAQATGLTPTQVGNWFKNRRQRDR

Variants of: B1
Experiment: abundance fitness (aPCA) (normalised: wild type 0, dead -1); higher = more abundant; growth selection in yeast, the domain comes from the species named
Conditions: Homo sapiens

| Variant | abundance fitness |
| --- | --- |
| CFKERTRSLPREWYLQDPYPNPSKKRELAQATGLTPTQVGNWFKNRRQRDR [L10P] | -0.872 ± 0.093 |
| CFKERTRSLSREWYLQDPYPNPSKKRELAQATGLTPTQVGNWFKNRRQRDR [L10S] | -0.647 ± 0.098 |
| CFKERTRSLYREWYLQDPYPNPSKKRELAQATGLTPTQVGNWFKNRRQRDR [L10Y] | -0.561 ± 0.36 |
| CFKERTRSLLRLWYLQDPYPNPSKKRELAQATGLTPTQVGNWFKNRRQRDR [E12L] | -0.426 ± 0.06 |
| CFKERTRSLLRPWYLQDPYPNPSKKRELAQATGLTPTQVGNWFKNRRQRDR [E12P] | -0.872 ± 0.12 |
| CFKERTRSLLRMWYLQDPYPNPSKKRELAQATGLTPTQVGNWFKNRRQRDR [E12M] | -0.282 ± 0.066 |
| CFKERTRSLLRNWYLQDPYPNPSKKRELAQATGLTPTQVGNWFKNRRQRDR [E12N] | 0.23 ± 0.12 |
| CFKERTRSLLRDWYLQDPYPNPSKKRELAQATGLTPTQVGNWFKNRRQRDR [E12D] | -0.098 ± 0.072 |
| CFKERTRSLLRFWYLQDPYPNPSKKRELAQATGLTPTQVGNWFKNRRQRDR [E12F] | -0.45 ± 0.16 |
| CFKERTRSLLRAWYLQDPYPNPSKKRELAQATGLTPTQVGNWFKNRRQRDR [E12A] | -0.256 ± 0.075 |
| CFKERTRSLLRTWYLQDPYPNPSKKRELAQATGLTPTQVGNWFKNRRQRDR [E12T] | -0.285 ± 0.056 |
| CFKERTRSLLRYWYLQDPYPNPSKKRELAQATGLTPTQVGNWFKNRRQRDR [E12Y] | -0.09 ± 0.041 |
| CFKERTRSLLRGWYLQDPYPNPSKKRELAQATGLTPTQVGNWFKNRRQRDR [E12G] | -0.3 ± 0.042 |
| CFKERTRSLLRVWYLQDPYPNPSKKRELAQATGLTPTQVGNWFKNRRQRDR [E12V] | -0.608 ± 0.099 |
| CFKERTRSLLRSWYLQDPYPNPSKKRELAQATGLTPTQVGNWFKNRRQRDR [E12S] | -0.236 ± 0.083 |
| CFKERTRSLLRCWYLQDPYPNPSKKRELAQATGLTPTQVGNWFKNRRQRDR [E12C] | -0.84 ± 0.2 |
| CFKERTRSLLRWWYLQDPYPNPSKKRELAQATGLTPTQVGNWFKNRRQRDR [E12W] | -0.185 ± 0.11 |
| CFKERTRSLLRKWYLQDPYPNPSKKRELAQATGLTPTQVGNWFKNRRQRDR [E12K] | -0.314 ± 0.12 |
| CFKERTRSLLRIWYLQDPYPNPSKKRELAQATGLTPTQVGNWFKNRRQRDR [E12I] | -0.618 ± 0.15 |
| CFKERTESLLREWYLQDPYPNPSKKRELAQATGLTPTQVGNWFKNRRQRDR [R7E] | -0.181 ± 0.11 |
| CFKERTVSLLREWYLQDPYPNPSKKRELAQATGLTPTQVGNWFKNRRQRDR [R7V] | -0.03 ± 0.043 |
| CFKERTLSLLREWYLQDPYPNPSKKRELAQATGLTPTQVGNWFKNRRQRDR [R7L] | -0.272 ± 0.096 |
| CFKERTHSLLREWYLQDPYPNPSKKRELAQATGLTPTQVGNWFKNRRQRDR [R7H] | 0.238 ± 0.49 |
| CFKERTDSLLREWYLQDPYPNPSKKRELAQATGLTPTQVGNWFKNRRQRDR [R7D] | -0.26 ± 0.18 |
| CFKERTTSLLREWYLQDPYPNPSKKRELAQATGLTPTQVGNWFKNRRQRDR [R7T] | -0.403 ± 0.2 |
| CFKERTPSLLREWYLQDPYPNPSKKRELAQATGLTPTQVGNWFKNRRQRDR [R7P] | -0.702 ± 0.18 |

| Variant | abundance fitness |
| --- | --- |
| CFKERTQSLLREWYLQDPYPNPSKKRELAQATGLTPTQVGNWFKNRRQRDR [R7Q] | -0.137 ± 0.2 |
| CFKERTMSLLREWYLQDPYPNPSKKRELAQATGLTPTQVGNWFKNRRQRDR [R7M] | -0.128 ± 0.11 |
| CFKERTGSLLREWYLQDPYPNPSKKRELAQATGLTPTQVGNWFKNRRQRDR [R7G] | -0.261 ± 0.075 |
| CFKERTSSLLREWYLQDPYPNPSKKRELAQATGLTPTQVGNWFKNRRQRDR [R7S] | 0.006 ± 0.078 |
| CFKERTNSLLREWYLQDPYPNPSKKRELAQATGLTPTQVGNWFKNRRQRDR [R7N] | 0.188 ± 0.15 |
| CFKERTFSLLREWYLQDPYPNPSKKRELAQATGLTPTQVGNWFKNRRQRDR [R7F] | -0.419 ± 0.3 |
| CFKERTISLLREWYLQDPYPNPSKKRELAQATGLTPTQVGNWFKNRRQRDR [R7I] | 0.083 ± 0.19 |
| CFKERTYSLLREWYLQDPYPNPSKKRELAQATGLTPTQVGNWFKNRRQRDR [R7Y] | 0.033 ± 0.15 |
| CFKERTWSLLREWYLQDPYPNPSKKRELAQATGLTPTQVGNWFKNRRQRDR [R7W] | -0.091 ± 0.12 |
| CFKERLRSLLREWYLQDPYPNPSKKRELAQATGLTPTQVGNWFKNRRQRDR [T6L] | -0.16 ± 0.059 |
| CFKERVRSLLREWYLQDPYPNPSKKRELAQATGLTPTQVGNWFKNRRQRDR [T6V] | 0.057 ± 0.046 |
| CFKERWRSLLREWYLQDPYPNPSKKRELAQATGLTPTQVGNWFKNRRQRDR [T6W] | -0.434 ± 0.079 |
| CFKERRRSLLREWYLQDPYPNPSKKRELAQATGLTPTQVGNWFKNRRQRDR [T6R] | -0.401 ± 0.072 |
| CFKERYRSLLREWYLQDPYPNPSKKRELAQATGLTPTQVGNWFKNRRQRDR [T6Y] | -0.289 ± 0.3 |
| CFKERQRSLLREWYLQDPYPNPSKKRELAQATGLTPTQVGNWFKNRRQRDR [T6Q] | -0.067 ± 0.21 |
| CFKERMRSLLREWYLQDPYPNPSKKRELAQATGLTPTQVGNWFKNRRQRDR [T6M] | -0.115 ± 0.049 |
| CFKERSRSLLREWYLQDPYPNPSKKRELAQATGLTPTQVGNWFKNRRQRDR [T6S] | -0.354 ± 0.091 |
| CFKERNRSLLREWYLQDPYPNPSKKRELAQATGLTPTQVGNWFKNRRQRDR [T6N] | -0.409 ± 0.21 |
| CFKERTRKLLREWYLQDPYPNPSKKRELAQATGLTPTQVGNWFKNRRQRDR [S8K] | 0.048 ± 0.061 |
| CFKERTRSLLREDYLQDPYPNPSKKRELAQATGLTPTQVGNWFKNRRQRDR [W13D] | -0.527 ± 0.12 |
| CFKERTRSLLREHYLQDPYPNPSKKRELAQATGLTPTQVGNWFKNRRQRDR [W13H] | -0.338 ± 0.15 |
| CFKERTRSLLREEYLQDPYPNPSKKRELAQATGLTPTQVGNWFKNRRQRDR [W13E] | -0.078 ± 0.056 |
| CFKERTRSLLREAYLQDPYPNPSKKRELAQATGLTPTQVGNWFKNRRQRDR [W13A] | 0.015 ± 0.06 |
| CFKERTRSLLREFYLQDPYPNPSKKRELAQATGLTPTQVGNWFKNRRQRDR [W13F] | -0.545 ± 0.2 |
| CFKERTRSLLRECYLQDPYPNPSKKRELAQATGLTPTQVGNWFKNRRQRDR [W13C] | -0.08 ± 0.059 |
